Earlier results, collected in article PMC5413942.

Target: FhuA Ton box peptide Ton box (Escherichia coli) (UniProt P06971)

TonB, sequence (P02929 whole entry): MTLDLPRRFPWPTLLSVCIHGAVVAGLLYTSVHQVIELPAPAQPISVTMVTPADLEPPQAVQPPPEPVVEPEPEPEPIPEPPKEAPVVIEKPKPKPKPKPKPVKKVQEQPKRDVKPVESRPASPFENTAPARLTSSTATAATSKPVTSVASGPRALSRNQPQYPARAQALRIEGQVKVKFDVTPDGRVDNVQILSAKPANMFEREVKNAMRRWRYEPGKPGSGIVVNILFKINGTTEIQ

Kd: 36 µM
Substance: TonB (from UniProt P02929)
